Test [1] addresses T1, TARGET-tagged mouse Wnt3a (mouse, UniProt P27467 19-352).
T1 construct: Construct design (N-terminal region from the initiation Met) is in Supplementary file 1; also called Tg-Wnt3a; tagged Wnt3a; source: purified on P20.1-Sepharose (peptide elution), SEC; not shown: TARGET (Tg) tag, N-terminal, kept
The test is described as follows: SEC; immunoaffinity-purified Wnt preparation on Superdex 200 10/300GL in TBS, no detergent; fractions on nonreducing SDS-PAGE, Coomassie stain and immunoblots. The settings on record: both partners purified. (In gel filtration, larger molecules generally elute earlier.)

The target in the next test is T2, Tg-tagged human afamin (human, UniProt P43652 22-599).
T2 construct: human afamin with a long (36 residues) N-terminal tag peptide; cDNA was a gift from Luc Bélanger; built by the same strategy as the tagged Wnts (tag, TEV site); also called Tg-hAFM; Tg-AFM; source: Expi293F cells, transiently co-transfected with PA-tagged Wnts, in serum-free culture medium; not shown: TARGET (Tg) tag, N-terminal, kept
T2 sequence (looked up): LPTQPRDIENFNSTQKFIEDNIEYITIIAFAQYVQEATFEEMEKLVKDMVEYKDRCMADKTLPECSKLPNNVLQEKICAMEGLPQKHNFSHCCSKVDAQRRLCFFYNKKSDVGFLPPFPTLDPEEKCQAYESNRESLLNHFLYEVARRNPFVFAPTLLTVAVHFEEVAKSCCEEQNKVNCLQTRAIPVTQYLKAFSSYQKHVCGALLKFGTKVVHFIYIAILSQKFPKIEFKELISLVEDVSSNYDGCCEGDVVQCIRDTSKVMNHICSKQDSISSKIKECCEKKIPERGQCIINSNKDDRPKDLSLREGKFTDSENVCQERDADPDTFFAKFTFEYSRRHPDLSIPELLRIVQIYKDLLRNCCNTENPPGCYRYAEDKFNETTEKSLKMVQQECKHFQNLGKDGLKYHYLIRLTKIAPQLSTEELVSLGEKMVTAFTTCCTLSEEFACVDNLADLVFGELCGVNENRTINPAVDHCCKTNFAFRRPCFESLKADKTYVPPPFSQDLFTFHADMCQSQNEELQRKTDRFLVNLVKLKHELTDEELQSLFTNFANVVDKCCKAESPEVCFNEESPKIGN
The experiment in a line: co-IP; anti-Tg antibody P20.1-Sepharose, serum-free culture media of Expi293F cells co-transfected with Tg-hAFM and PA-tagged human Wnts; immunoblot with biotinylated NZ-1. The settings on record: partners not purified.

As a reminder, the stoichiometry N is a count of units in the complex or per binding partner.

T1 sequence (P27467 19-352): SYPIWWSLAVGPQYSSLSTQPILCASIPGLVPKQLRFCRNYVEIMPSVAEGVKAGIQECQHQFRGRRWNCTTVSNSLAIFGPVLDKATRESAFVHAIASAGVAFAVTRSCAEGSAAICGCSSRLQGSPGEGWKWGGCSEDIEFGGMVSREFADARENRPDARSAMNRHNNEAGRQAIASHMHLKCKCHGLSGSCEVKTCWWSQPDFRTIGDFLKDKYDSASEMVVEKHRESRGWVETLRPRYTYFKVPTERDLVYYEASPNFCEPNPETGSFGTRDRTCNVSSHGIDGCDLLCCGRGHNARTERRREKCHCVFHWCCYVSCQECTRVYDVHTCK

B1: bovine afamin from the serum of the culture medium (natural protein, UniProt G3MYZ3 22-604, looked up)
chain: LPTQPQDVDDVRITQKFIDDNIGYITIIAFAQYIQEASFEEVEMLVKAMTEYRDKCLADRTLPECSKLANEVLLENICAMEGLPQKYNFSHCCHKVDFERRLCFFHNKKADIGLLPPLPTLDPEEKCQTYKNNRESFLNNYVYEVSRRNPFVFAPTLLTVAARFEEMTKTCCEEQEKANCFQTKAEPFIYYLKALSSYQKNACRALMKFGRQILQSINIAILSQKFPKIGFKQLTSLLEDVSSKYDGCCEGDVVQCIRGRSKVMSHICSKQDSISSKIKDCCEKKIPERGECIIYSNKDDRPNDLSLREAKFIESDNVCEKRDADQANFMAEFLYEYSRRHPELSTPELLRIAKVYKDLLKECCNMENPPECYRHAENRFNETTEKSLKIVQRECEHFQNLGKDDLKYHYLINLTKLAPQLSTEELTFLGKEMVMALTTCCTLSEEFACVDNLVDLVLGELCGINENRNINPAVDHCCKTNFAFRRSCFESLEADKTYVPPSTSQGLFTFHADLCQAHNEELQRKKDRFLVNLVKLKPELAGEELWSLLADFTNVVEKCCKAQEPEACFKEESPKLAAKSQAA
notes: bovine afamin, serum-derived; Glycoprotein of about 70 kDa; also called AFM; α-albumin; source: endogenous, fetal calf serum in the culture medium
As for B1, the “stoichiometry N” value in test [1] amounted to 1.

B2: PA-tagged human Wnt3 (natural protein, UniProt P56703 22-355, looked up)
chain: GYPIWWSLALGQQYTSLGSQPLLCGSIPGLVPKQLRFCRNYIEIMPSVAEGVKLGIQECQHQFRGRRWNCTTIDDSLAIFGPVLDKATRESAFVHAIASAGVAFAVTRSCAEGTSTICGCDSHHKGPPGEGWKWGGCSEDADFGVLVSREFADARENRPDARSAMNKHNNEAGRTTILDHMHLKCKCHGLSGSCEVKTCWWAQPDFRAIGDFLKDKYDSASEMVVEKHRESRGWVETLRAKYSLFKPPTERDLVYYENSPNFCEPNPETGSFGTRDRTCNVTSHGIDGCDLLCCGRGHNTRTEKRKEKCHCIFHWCCYVSCQECIRIYDVHTCK
In the case of B2, the binding result with Tg-tagged human afamin is given as “binds”.

The record behind these values is publication PMC4775226, “Active and water-soluble form of lipidated Wnt protein is maintained by a serum glycoprotein afamin/α-albumin” (eLife, 2016).
